Measurements reported in patent US6838446B1, “Vector for expression of GPI-enzyme hybrid” (AstraZeneca AB, priority 1999, dated 2005).

Legend:
[1] = bacterially expressed standard (Sigma C4053); cited from earlier work
[2] = HPLC based CPG2 enzyme activity assay with CPG2 capture ELISA, supernatants of adenovirally infected CHO K1 cells; assay type: biochemical; settings: RAd infected CHO K1 cells, supernatant 48 hours after infection
Protocol: (§1) For the CPG2 capture ELISA, 96 well plates precoated with goat anti-mouse IgG are used (PIERCE REACII-BIND™ 15134 plates). A second layer of mouse monoclonal anti-CPG2 diluted 1:800 in PBS/0.05% TWEEN™/BSA is added by overnight incubation at 4°. In between each binding step the plate is washed 3 times with PBS/0.05% TWEEN™. 100 μl test sample is added per well and doubling dilutions in PBS/0.05%TWEEN™ carried out across the plate. A fourth layer of rabbit polyclonal anti-CPG2 diluted 1:2500 in PBS/0.05% TWEEN™/2% BSA is added followed by a final layer of goat anit-rabbit IgG Horse Radish Peroxidase Labelled Antibody (DAKO PO448) diluted 1:1000 in PBS/0.05% TWEEN™/2% BSA. To detect binding, 100 μl per well of developing solution is added [one capsule of phosphate-citrate buffer (Sigma P4922) dissolved in 100 ml water to which is added one 30 mg tablet o-phenyldiamine dihydrochloride (Sigma P4812)] and the reaction stopped after 5 mins by adding 75 μl 2M H2SO4, and the absorbance read at 490 nm.
To measure CPG2 enzyme activity in cell supernatant samples at HPLC based CPG2 enzyme assay can be used. […] 60 μl of sample is injected and the absorbance at 300 nm measured over a total run time of 8 mins/sample giving expected retention times for methotrexate and metabolite of 3.9 and 5.6 respectively. […]

[3] = HPLC based CPG2 enzyme activity assay with CPG2 capture ELISA, supernatants of transiently transfected COS 7 cells; assay type: biochemical; settings: for specific activity of unpurified protein in crude supernatant, expressed in presence of tunicamycin / specific activity of unpurified protein in crude supernatant: COS 7 transient plasmid expression; for specific activity of unpurified protein in crude supernatant, expressed in presence of tunicamycin: 10 μg/ml tunicamycin (unglycosylated protein); for specific activity of unpurified protein in crude supernatant: tunicamycin absent, for CPG2 the combined activity of three protein forms (glycosylated and unglycosylated)
Protocol: Transient tranfection of COS 7 cells can be achieved using a LIPOFECTIN™ based procedure. LIPOFECTIN™ Reagent (Gibco BRL Cat. No. 18292-011) is a 1:1 (w/w) liposome formulation of the cationic lipid DOTMA and DOPE in membrane filtered water. It binds spontaneously with DNA to form a lipid-DNA complex (Felgner et al., Proc. Natl. Acad Sci. USA (1987) 84, 7431. COS 7 cells are seeded into a 6 well plate a 2×10^5 cell/2 ml/well, from a subconfluent culture and incubated overnight at 37°, 5% CO2. A LIPOFECTIN™/serum free medium mix is made up containing 120 μl LIPOFECTIN™ plus 480 μl serum free medium and incubated at room temperature for 30 minutes. A DNA/serum free medium mix is prepared by mixing 12 μg DNA with 600 μl serum free medium. The LIPOFECTIN™/serum free medium mix is added to the DNA/serum free medium mix and left at room temperature for 15 mins. The cells are washed once with 2 ml serum free-medium, then 800 μl serum free media added plus 200 μl LIPOFECTIN™/DNA mix/well and incubated for 5 hours at 37°, 5% CO2. The LIPOFECIN™/DNA mix is removed from the cells and normal growth media added after which the cells are incubated for 48-72 hours at 37°, 5% CO2 when the supernatants are harvested.
COS 7 cells can also be transiently transfected in the presence of the glycosylation inhibitor tunicamycin. The transfection procedure is repeated as above, but after incubating for 5 hours at 37°, 5% CO2, 10 μg/ml tunicamycin (Sigma T7765) is added into the normal growth media.
as §1
To measure CPG2 enzyme activity in cell supernatant samples at HPLC based CPG2 enzyme assay can be used. 125 βl cell supernatant is pulsed in a micro-centrifuge to remove cell debris and 375 μl fresh reaction buffer (PBS/0.2 mM ZnCl2) added. Upon addition of 100 μM methotrexate, a substrate for the CPG2 enzyme, the reaction is incubated at 37° for 1 hour. The reaction is stopped by the addition of 500 μl methanol/0.2% Trifluoroacetio acid. The 1 ml sample is placed in a capped vial and assayed using HPLC. An isocratic separation with a mobile phase containing: 60% Methanol/40%, 60 mM Ammonium formate/0.1% Trifluoroacetic acid is used with an S5SC×column (Hichrom). 60 μl of sample is injected and the absorbance at 300 nm measured over a total run time of 8 mins/sample giving expected retention times for methotrexate and metabolite of 3.9 and 5.6 respectively.
The two plasmids pNG3/RC/CPG2 and pNG3/RC/CPG2(Q3) (which encoded the glycosylatable and Q3 variant secretory forms of the CPG2 protein respectively) were transfected into COS-7 cells using the LIPOFECTIN™ transfection procedure. To confirm that the mutagenesis of CPG2 to CPG2(Q3) had removed all potential glycosylation sites, the two proteins were also expressed in the presence of the glycosylation inhibitor, tunicamycin. After 72 h of expression the cell supernatants were harvested for analysis. […]

| Molecule | specific activity of purified bacterial CPG2 [1] [units/mg] | specific activity of virally expressed secretable enzyme [2] [units/mg] | specific activity of unpurified protein in crude supernatant, expressed in presence of tunicamycin [3] | specific activity of unpurified protein in crude supernatant [3] | reduction of enzyme activity by mutagenesis of CPG2 to CPG2(Q3) ([3]; as printed: compared with bacterial expressed enzyme) [fold] | specific activity, fold lower than wild type bacterial enzyme ([3]; unpurified protein, COS 7 supernatant) |
| --- | --- | --- | --- | --- | --- | --- |
| bacterial CPG2: purified, bacterially expressed CPG2 used as a standard (Sigma C4053) (protein, UniProt P06621 23-415, looked up) Carboxypeptidase G2: ALAQKRDNVLFQAATDEQPAVIKTLEKLVNIETGTGDAEGIAAAGNFLEAELKNLGFTVTRSKSAGLVVGDNIVGKIKGRGGKNLLLMSHMDTVYLKGILAKAPFRVEGDKAYGPGIADDKGGNAVILHTLKLLKEYGVRDYGTITVLFNTDEEKGSFGSRDLIQEEAKLADYVLSFEPTSAGDEKLSLGTSGIAYVQVNITGKASHAGAAPELGVNALVEASDLVLRTMNIDDKAKNLRFNWTIAKAGNVSNIIPASATLNADVRYARNEDFDAAMKTLEERAQQKKLPEADVKVIVTRGRPAFNAGEGGKKLVDKAVAYYKEAGGTLGVEERTGGGTDAAYAALSGKPVIESLGLPGFGYHSDKAEYVDISAIPRRLYMAARLIMDLGAGK | 500 | – | – | – | – | – |
| CPG2: carboxypeptidase G2 with kappa light chain secretory leader, unaltered glycosylation sites, expressed from mammalian cells (pNG3/RC/CPG2) (protein, UniProt P06621 23-415, looked up, kappa light chain secretory leader) Carboxypeptidase G2: ALAQKRDNVLFQAATDEQPAVIKTLEKLVNIETGTGDAEGIAAAGNFLEAELKNLGFTVTRSKSAGLVVGDNIVGKIKGRGGKNLLLMSHMDTVYLKGILAKAPFRVEGDKAYGPGIADDKGGNAVILHTLKLLKEYGVRDYGTITVLFNTDEEKGSFGSRDLIQEEAKLADYVLSFEPTSAGDEKLSLGTSGIAYVQVNITGKASHAGAAPELGVNALVEASDLVLRTMNIDDKAKNLRFNWTIAKAGNVSNIIPASATLNADVRYARNEDFDAAMKTLEERAQQKKLPEADVKVIVTRGRPAFNAGEGGKKLVDKAVAYYKEAGGTLGVEERTGGGTDAAYAALSGKPVIESLGLPGFGYHSDKAEYVDISAIPRRLYMAARLIMDLGAGK | – | 71 | 165-210 units/mg | 61-87 units/mg | – | – |
| CPG2(Q3): CPG2 with asparagine at positions 222, 264 & 272 mutated to glutamine, secreted form (protein, UniProt P06621 23-415, looked up, variant N222Q N264Q N272Q, secreted form, CPG2 with asparagine at positions 222, 264 & 272 mutated to glutamine, secreted form) Carboxypeptidase G2: ALAQKRDNVLFQAATDEQPAVIKTLEKLVNIETGTGDAEGIAAAGNFLEAELKNLGFTVTRSKSAGLVVGDNIVGKIKGRGGKNLLLMSHMDTVYLKGILAKAPFRVEGDKAYGPGIADDKGGNAVILHTLKLLKEYGVRDYGTITVLFNTDEEKGSFGSRDLIQEEAKLADYVLSFEPTSAGDEKLSLGTSGIAYVQVQITGKASHAGAAPELGVNALVEASDLVLRTMNIDDKAKNLRFQWTIAKAGQVSNIIPASATLNADVRYARNEDFDAAMKTLEERAQQKKLPEADVKVIVTRGRPAFNAGEGGKKLVDKAVAYYKEAGGTLGVEERTGGGTDAAYAALSGKPVIESLGLPGFGYHSDKAEYVDISAIPRRLYMAARLIMDLGAGK | – | 180 | 90-124 units/mg | 71-120 units/mg | 2 | approximately 5 fold |
